# T1: human recombinant VCAM-1 (human, UniProt P19320 25-698)
# T1 construct: Bought recombinant protein (RnD Systems), immobilised on a CM5 chip for SPR; also called hVCAM-1; human VCAM-1
# T1 sequence (looked up): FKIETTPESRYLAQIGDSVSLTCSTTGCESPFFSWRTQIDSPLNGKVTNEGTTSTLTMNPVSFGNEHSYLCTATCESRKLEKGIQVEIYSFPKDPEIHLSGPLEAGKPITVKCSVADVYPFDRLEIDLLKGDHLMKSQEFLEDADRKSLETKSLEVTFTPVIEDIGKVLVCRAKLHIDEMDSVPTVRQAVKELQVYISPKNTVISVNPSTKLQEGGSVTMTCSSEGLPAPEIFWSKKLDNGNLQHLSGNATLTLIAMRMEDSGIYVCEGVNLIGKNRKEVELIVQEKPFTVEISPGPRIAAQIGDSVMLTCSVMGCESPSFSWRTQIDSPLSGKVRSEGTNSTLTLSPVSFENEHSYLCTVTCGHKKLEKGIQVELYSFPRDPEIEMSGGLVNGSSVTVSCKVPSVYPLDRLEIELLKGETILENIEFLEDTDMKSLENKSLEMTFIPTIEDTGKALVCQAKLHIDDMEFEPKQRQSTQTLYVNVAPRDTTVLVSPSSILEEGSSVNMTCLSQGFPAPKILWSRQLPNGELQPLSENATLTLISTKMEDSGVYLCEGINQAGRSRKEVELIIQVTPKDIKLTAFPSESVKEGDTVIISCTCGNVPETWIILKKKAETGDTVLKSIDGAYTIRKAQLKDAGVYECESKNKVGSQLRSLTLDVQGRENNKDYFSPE
# T2: murine recombinant VCAM-1 (murine, UniProt P29533 25-698)
# T2 construct: Bought recombinant protein (RnD Systems), immobilised on a CM5 chip for SPR; also called mVCAM-1; murine VCAM-1
# T2 sequence (looked up): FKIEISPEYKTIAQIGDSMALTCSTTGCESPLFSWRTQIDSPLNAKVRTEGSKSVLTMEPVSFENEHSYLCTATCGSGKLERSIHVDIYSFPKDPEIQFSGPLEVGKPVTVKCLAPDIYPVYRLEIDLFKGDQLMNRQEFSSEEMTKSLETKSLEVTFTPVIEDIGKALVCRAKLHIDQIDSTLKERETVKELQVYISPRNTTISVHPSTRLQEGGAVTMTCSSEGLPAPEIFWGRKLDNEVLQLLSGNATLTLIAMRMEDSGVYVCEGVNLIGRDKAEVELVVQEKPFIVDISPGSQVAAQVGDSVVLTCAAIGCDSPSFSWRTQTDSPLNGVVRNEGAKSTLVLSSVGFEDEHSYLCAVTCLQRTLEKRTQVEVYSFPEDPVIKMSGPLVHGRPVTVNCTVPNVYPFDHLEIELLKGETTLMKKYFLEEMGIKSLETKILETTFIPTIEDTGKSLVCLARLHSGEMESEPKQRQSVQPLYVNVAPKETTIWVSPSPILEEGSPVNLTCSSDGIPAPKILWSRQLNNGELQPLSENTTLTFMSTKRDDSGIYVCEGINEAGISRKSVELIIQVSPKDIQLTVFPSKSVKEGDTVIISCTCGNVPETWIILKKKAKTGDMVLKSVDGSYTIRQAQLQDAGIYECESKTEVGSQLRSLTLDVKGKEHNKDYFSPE
# T3: rabbit VCAM-1 on transfected CHO cells (rabbit, UniProt A0A5F9DFM7 25-739)
# T3 construct: whole, on cells
# T3 sequence: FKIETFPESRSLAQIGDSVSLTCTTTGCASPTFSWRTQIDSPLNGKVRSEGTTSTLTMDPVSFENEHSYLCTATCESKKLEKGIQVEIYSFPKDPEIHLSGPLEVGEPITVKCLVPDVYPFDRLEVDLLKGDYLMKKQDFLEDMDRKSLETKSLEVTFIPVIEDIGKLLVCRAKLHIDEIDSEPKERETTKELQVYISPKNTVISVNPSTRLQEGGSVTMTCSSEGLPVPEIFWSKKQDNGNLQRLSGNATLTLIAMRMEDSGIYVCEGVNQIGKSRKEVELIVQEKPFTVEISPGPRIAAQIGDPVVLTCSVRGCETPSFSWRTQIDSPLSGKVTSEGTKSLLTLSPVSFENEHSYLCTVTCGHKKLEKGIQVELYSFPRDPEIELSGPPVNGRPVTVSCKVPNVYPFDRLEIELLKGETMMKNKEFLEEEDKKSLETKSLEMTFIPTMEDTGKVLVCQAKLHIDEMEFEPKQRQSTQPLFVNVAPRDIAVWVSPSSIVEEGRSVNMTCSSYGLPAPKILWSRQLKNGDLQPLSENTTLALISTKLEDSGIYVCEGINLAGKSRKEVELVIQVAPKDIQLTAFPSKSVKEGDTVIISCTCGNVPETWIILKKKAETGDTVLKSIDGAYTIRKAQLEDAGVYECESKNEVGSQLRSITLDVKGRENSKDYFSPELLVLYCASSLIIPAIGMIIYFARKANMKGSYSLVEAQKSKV
# Key:
# human recombinant VCAM-1 = target: T1, human recombinant VCAM-1; experiment: SPR, Biacore 3000, recombinant hVCAM-1 immobilised on CM5 chip, 1:1 model
# Protocol: (§1) The affinity of human or murine recombinant VCAM-1 nanobodies was determined by SPR analysis on a Biacore 3000 apparatus. Recombinant mouse ICAM-1 (RnD Systems) was used as a negative control. The recombinant proteins were immobilized on a sensor chip CM5 (Biacore, Uppsala, Sweden) according to the instructions of manufacturer. Serial half-dilutions of the nanodbodies from 50 to 1 nM in PBS with 0.005% Tween-20® were tested. The affinity constants were determined by using adjustment of the standard association model 1:1 (BIAevaluation software package).
# [1] = target: T2, murine recombinant VCAM-1; experiment: SPR, Biacore 3000, recombinant mVCAM-1 immobilised on CM5 chip, 1:1 model
# Protocol: as §1
# [2] = target: T3, rabbit VCAM-1 on transfected CHO cells; experiment: flow cytometry (PE-A) on CHO cells transiently transfected with rabbit VCAM-1; nanobody, then anti-His-tag mAb and anti-mouse IgG1 [Continuation), panel 3B]
# Protocol: (§2) 10⁵ CHO cells either transiently transfected or not with a plasmid coding for rabbit VCAM-1 were sequentially incubated with 1 μg of nanobodies, 1 μg of anti-His-tag monoclonal antibody (Serotec) and 200 ng of anti-mouse rat IgG₁ (BD Biosciences). The bond was measured on a FACS Canto II analyzer (BD Biosciences, Franklin Lakes, USA) and the data analysed with the FlowJo software package (TreeStar, Ashland, USA). A negative control was made by omitting the nanobody.
# [3] = target: T3, rabbit VCAM-1 on transfected CHO cells; experiment: flow cytometry (PE-A) on CHO cells transiently transfected with rabbit VCAM-1; nanobody, then anti-His-tag mAb and anti-mouse IgG1 [Continuation), panel 8B]
# Protocol: as §2
Binder,Kd (human recombinant VCAM-1) [nM],Kd [1] [nM],binding result [2],binding result [3]
"cAbVCAM1-5 (VHH, Dromedary nanobody produced with a hexahistidine tag in E. coli; also called anti-VCAM-1 nanobody; not shown: hexahistidine tag) VHH: QVQLQESGGGSVQTGGSLRLSCAASGYTNSIMYMAWFRQAPGKKREGVAAIRFPDDSAYYAGSVKGRFTISHDNAKNTVYLQMNNLNPEDTAMYYCAARSSPYSFAWNDPSNYNYWGQGTQVTVSS",6.5,2,,
"cAbVCAM1-3 (VHH, Dromedary nanobody produced with a hexahistidine tag in E. coli; also called anti-VCAM-1 nanobody; not shown: hexahistidine tag) VHH: QVQLQESGGGSVQAGGSLRLSCTASGFTYSSYYMSWVRQAPGKGLEWVSGINVDGSNTYYADSVKGRFTISRDNAKNTLYLQMNSLKSEDTALYYCATGSGRDSYDCYSGSWCPKGQGTQVTVSS",9.1,2.4,no binding (tested: 1 µg per 10^5 cells (single amount)),

# The next binders have a lower Kd (human recombinant VCAM-1) than those just listed; values first:
Kd (human recombinant VCAM-1) [nM],Kd [1] [nM],Binder,binding result [2],binding result [3]
5.3,0.9,"cAbVCAM1-9 (VHH, Dromedary nanobody produced with a hexahistidine tag in E. coli; also called anti-VCAM-1 nanobody; not shown: hexahistidine tag) VHH: QVQLQESGGGLVQPGGSLRLSCAASGFTFSSYYMSWVRQAPGKGLEWVSGINVDGSNTYYADSVKGRFTISRDNAKNTLYLQMNSLKSEDTALYYCATGSGRDSYDCYSGSWCPKGQGTQVTVSS",,
1.4,13.2,"cAbVCAM1-8 (VHH, Dromedary nanobody produced with a hexahistidine tag in E. coli; also called anti-VCAM-1 nanobody; not shown: hexahistidine tag) VHH: QVQLQESGGGLVQPGGSLRLSCAASGFTFSNYYMTWVRRAPGKGLEWVSRINSDGSTLYLPSVKGRFTISRDNAKNTLYLQMNSLKSEDTGWYYCVEGKSSVRGQGTQVTVSS",,no binding (tested: 1 µg per 10^5 cells (single amount))
